Reference: patent US20170015737A1 (published 2017)

What was measured:
[1] = target: recombinant human TTR F87M/L110M (human, UniProt P02766 21-147); experiment: SPR, mAb captured on anti-mouse IgG chip, TTR F87M/L110M as analyte
pH4.0-treated TTR [2] = target: T1, pH4.0-treated TTR (human, UniProt P02766 21-147); experiment: sandwich ELISA on pH4-TTR (the table prints 14.6 for 6C1)
pH4.0-treated TTR [3] = target: T1, pH4.0-treated TTR; experiment: ELISA, pH4-TTR captured on anti-His coated plate
pH4.0-treated TTR [4] = target: T1, pH4.0-treated TTR; experiment: sandwich ELISA (pH4-TTR)

B1: 6C1 (antibody, V domains shown)
VH: EVQLVESGGGLVQPGGSLKLSCAASGFTFSNYYMSWVRQTPEKRLEWVAYISIDGNNIYHPDSVKGRFTISRDNAKNTLYLQMSSLKSEDTAMYYCARDSDYGYFDVWGTGTTVTVSS
VL: DVLMTQTPLSLPVSLGDQASISCRSSQSIVHSNGNTYLEWYLQKRGQSPKLLIYKVSKRFSGVPDRFSGSGSGTDFILKISRVEAEDLGVYYCFQGSHVPLTFGGGTKLELK
Kd [1]: 9.01 nM | koff [1]: 0.000415 s⁻¹ | kon [1]: 46100 M⁻¹ s⁻¹ | Kd (pH4.0-treated TTR [2]): 14.5 nM | Kd (pH4.0-treated TTR [3]): 16 nM | Kd (pH4.0-treated TTR [4]): 14.6 nM
